Laboratory results published in article PMC7744796, “Prolyl isomerization controls activation kinetics of a cyclic nucleotide-gated ion channel” (Nature Communications, 2020).
Where “and” joins values, the source holds several entries; their conditions need not be identical. Equal entries are not always repeated.

Columns and labels:
Abz-Ala-Leu-Pro-Phe-pNA = experiment: Peptide-based isomerization assay, PPIase activity, Leu substrate; type: biochemical
Description: (§1) To determine the activity of PPIases, peptides with either Leu or Glu preceding the Pro were used. Buffer and the desired concentration of PPIase were mixed in a QS quartz cuvette (Hellma Analytics) and incubated for 2 min under constant stirring. Peptide was added and the fluorescence increase was monitored.

Abz-Ala-Glu-Pro-Phe-pNA = experiment: Peptide-based isomerization assay, PPIase activity, Glu substrate; type: biochemical
Description: as §1

SthK P300A = experiment: Stopped-flow Tl+ flux assay, SthK P300A in proteo-liposomes; type: biochemical, Spirochaeta thermophila; settings: SthK P300A + SlyD; for averaged rate: mean of normalized rates; for normalized rate: single replicates
Text: (§2) In all cyclic nucleotide-gated channels the connection between the C-linker and the CNBD is formed by a helix-loop-helix motif called the siphon. […] This proline had not been previously implicated in prolyl isomerization in HCN channels or SthK. Due to steric restrictions and the lack of an amide-proton, prolines are only rarely found at the C-termini of α-helices[20],[21]. To test whether this unusual proline (Pro300, Fig. 1a, b) plays a role in channel activation, we employed a fluorescence-based stopped-flow assay to measure activation kinetics of a SthK mutant where the proline was substituted by an alanine.
(§3) All stopped-flow experiments were performed at 25 °C using a SX.20 sequential mixing fluorescence spectrophotometer (Applied Photophysics, Leatherhead, UK) controlled using ProDataSX as described before. In order to prepare liposomes for the Tl^+ flux assays 15 mg of DOPC:POPG:Cardiolipin (5:3:2, w/w/w) in chloroform were dried to a thin film in glass tubes under constant N2 flow and further dried under vacuum overnight. […] The sample was incubated at 21 °C under constant agitation for 3 h, the supernatant was transferred to a new glass tube and stored at 13 °C overnight. […] The liposome solution was diluted 5-times in sample buffer right before the experiments to ensure a good signal-to-noise ratio.
(§4) For the time course of activation in the presence of PPIases 2 µM of enzyme were added to the liposome solution and incubated for at least 10 min before the experiment yielding 1 µM of enzyme in the aging loop (after the first mixing event).
(§5) During one experiment, at least seven technical repeats were performed for each data point, every repeat was visually inspected for its quality, mixing artifacts were sorted out and the remaining repeats (typically 6–7 technical repeats) were analyzed separately in Matlab using a stretched exponential function (Eq. (2)) and the rate of Tl^+ influx into liposomes was calculated at 2 ms according to Eq. (3). 5000 data points were recorded over 1 s, however, to obtain the initial rate of Tl^+ influx only the first 100 ms were analyzed. The use of a stretched exponential function is necessary since the sizes of the liposomes vary and different amounts of channel proteins can be incorporated in different liposomes.2 Ft=F∞+F0−F∞⋅e^−t/τ^β 3 kt=β/τ⋅0.002s/τ^β−1 with Ft, F∞, F0 being the fluorescence at time t, the final fluorescence and the initial fluorescence, respectively. t is the time (in s), τ the time constant (in s) and β the stretched exponential factor. kt is the calculated rate (in s^−1) of Tl^+ influx at 2 ms.
(§6) The calculated rates kt were then averaged and the standard deviation (S.D.) was determined. Each experiment was independently repeated at least three times, the obtained rate constants were normalized, averaged and the S.D. was determined.
(§7) All further analysis was performed in GraFit. For the time course of channel activation, the rates were plotted as a function of the delay time in the first mixing step and fitted according to a double exponential.

WT SthK = experiment: Stopped-flow Tl+ flux assay, WT SthK in proteo-liposomes; type: biochemical, Spirochaeta thermophila; design: key to averaged rate: normalized Tl+ influx rate at 2 ms (unitless, relative)
Text: as §2, §3, §4, §5, §6, §7

[1] = 1 µM PPIase, 100 µM cAMP, delay time 0.012 s
[2] = 1 µM PPIase, 100 µM cAMP, delay time 0.050 s
[3] = 1 µM PPIase, 100 µM cAMP, delay time 0.100 s
[4] = 1 µM PPIase, 100 µM cAMP, delay time 0.500 s
[5] = 1 µM PPIase, 100 µM cAMP, delay time 1.000 s
[6] = 1 µM PPIase, 100 µM cAMP, delay time 2.500 s
[7] = 1 µM PPIase, 100 µM cAMP, delay time 5.000 s
[8] = 1 µM PPIase, 100 µM cAMP, delay time 10.000 s
[9] = [PPIase] 10 pM, 12 ms with 100 µM cAMP
[10] = [PPIase] 100 pM, 12 ms with 100 µM cAMP
[11] = [PPIase] 1e-8 M, 12 ms with 100 µM cAMP
[12] = [PPIase] 1e-7 M, 12 ms with 100 µM cAMP
[13] = [PPIase] 1e-6 M, 12 ms with 100 µM cAMP
[14] = [PPIase] 1e-5 M, 12 ms with 100 µM cAMP

B1: SlyD: bacterial FKBP-type isomerase (UniProt P0A9K9, residues 1–165) (protein, UniProt P0A9K9 1-165, looked up, fragment)
chain: MKVAKDLVVSLAYQVRTEDGVLVDESPVSAPLDYLHGHGSLISGLETALEGHEVGDKFDVAVGANDAYGQYDENLVQRVPKDVFMGVDELQVGMRFLAETDQGPVPVEITAVEDDHVVVDGNHMLAGQNLKFNVEVVAIREATEEELAHGHVHGAHDHHHDHDHD
apparent rate (Abz-Ala-Leu-Pro-Phe-pNA; KCl, LPF substrate, 2 nM enzyme): 0.041 s⁻¹ and 0.044 s⁻¹ and 0.045 s⁻¹
apparent rate (Abz-Ala-Leu-Pro-Phe-pNA; KCl, LPF substrate, 5 nM enzyme): 0.051 s⁻¹ and 0.061 s⁻¹ and 0.048 s⁻¹
apparent rate (Abz-Ala-Leu-Pro-Phe-pNA; KCl, LPF substrate, 10 nM enzyme): 0.068 s⁻¹ and 0.054 s⁻¹ and 0.069 s⁻¹
apparent rate (Abz-Ala-Leu-Pro-Phe-pNA; KCl, LPF substrate, 15 nM enzyme): 0.053 s⁻¹ and 0.072 s⁻¹ and 0.063 s⁻¹
apparent rate (Abz-Ala-Leu-Pro-Phe-pNA; KNO3, LPF substrate, 2 nM enzyme): 0.049 s⁻¹ and 0.043 s⁻¹ and 0.048 s⁻¹
apparent rate (Abz-Ala-Leu-Pro-Phe-pNA; KNO3, LPF substrate, 5 nM enzyme): 0.062 s⁻¹ and 0.056 s⁻¹ and 0.074 s⁻¹
apparent rate (Abz-Ala-Leu-Pro-Phe-pNA; KNO3, LPF substrate, 10 nM enzyme): 0.072 s⁻¹ and 0.045 s⁻¹
apparent rate (Abz-Ala-Leu-Pro-Phe-pNA; KNO3, LPF substrate, 15 nM enzyme): 0.062 s⁻¹ and 0.069 s⁻¹ and 0.077 s⁻¹
apparent rate (Abz-Ala-Glu-Pro-Phe-pNA; KCl, EPF substrate, 2 nM enzyme): 0.026 s⁻¹ and 0.024 s⁻¹
apparent rate (Abz-Ala-Glu-Pro-Phe-pNA; KCl, EPF substrate, 5 nM enzyme): 0.025 s⁻¹ and 0.026 s⁻¹
apparent rate (Abz-Ala-Glu-Pro-Phe-pNA; KCl, EPF substrate, 10 nM enzyme): 0.024 s⁻¹ and 0.025 s⁻¹
apparent rate (Abz-Ala-Glu-Pro-Phe-pNA; KCl, EPF substrate, 15 nM enzyme): 0.025 s⁻¹ and 0.024 s⁻¹
apparent rate (Abz-Ala-Glu-Pro-Phe-pNA; KNO3, EPF substrate, 2 nM enzyme): 0.023 s⁻¹ and 0.027 s⁻¹
apparent rate (Abz-Ala-Glu-Pro-Phe-pNA; KNO3, EPF substrate, 5 nM enzyme): 0.024 s⁻¹ and 0.029 s⁻¹ and 0.027 s⁻¹
apparent rate (Abz-Ala-Glu-Pro-Phe-pNA; KNO3, EPF substrate, 10 nM enzyme): 0.028 s⁻¹ and 0.024 s⁻¹ and 0.026 s⁻¹
apparent rate (Abz-Ala-Glu-Pro-Phe-pNA; KNO3, EPF substrate, 15 nM enzyme): 0.024 s⁻¹ and 0.027 s⁻¹
averaged rate (SthK P300A; delay time 0.010 s): 1.007
normalized rate (SthK P300A; delay time 0.010 s): 1.011 and 0.947
averaged rate (SthK P300A; delay time 0.025 s): 0.973
normalized rate (SthK P300A; delay time 0.025 s): 0.800
averaged rate (SthK P300A; delay time 0.050 s): 0.981
normalized rate (SthK P300A; delay time 0.050 s): 0.892 and 1.105
averaged rate (SthK P300A; delay time 0.100 s): 0.894
normalized rate (SthK P300A; delay time 0.100 s): 1.000 and 0.795 and 0.887
averaged rate (SthK P300A; delay time 0.250 s): 1.060
normalized rate (SthK P300A; delay time 0.250 s): 1.026 and 1.272 and 0.881
averaged rate (SthK P300A; delay time 0.500 s): 1.153
normalized rate (SthK P300A; delay time 0.500 s): 1.146 and 1.160
averaged rate (SthK P300A; delay time 1.000 s): 1.068
normalized rate (SthK P300A; delay time 1.000 s): 1.172
averaged rate (SthK P300A; delay time 2.500 s): 1.001
normalized rate (SthK P300A; delay time 2.500 s): 1.067 and 1.000
averaged rate (SthK P300A; delay time 5.000 s): 0.966
normalized rate (SthK P300A; delay time 5.000 s): 1.000 and 0.922
averaged rate (SthK P300A; delay time 10.000 s): 0.867
normalized rate (SthK P300A; delay time 10.000 s): 0.930 and 0.866 and 0.804
averaged rate (WT SthK; [1]): 1.130
normalized rate (WT SthK; [1]): 0.993 and 1.357 and 1.239 and 1.025 and 1.202 and 0.960
averaged rate (WT SthK; [2]): 1.035
normalized rate (WT SthK; [2]): 1.008 and 0.974 and 1.215 and 1.144 and 1.115 and 0.926 and 0.860
averaged rate (WT SthK; [3]): 0.965
normalized rate (WT SthK; [3]): 0.986 and 0.930 and 0.972 and 1.038 and 1.181 and 0.964 and 0.683
normalized rate (WT SthK; 1 µM PPIase, 100 µM cAMP, delay time 0.250 s): 0.815 and 0.934 and 1.134 and 1.296 and 1.074 and 0.872
averaged rate (WT SthK; [4]): 0.978
normalized rate (WT SthK; [4]): 0.911 and 0.879 and 0.973 and 1.305 and 0.757 and 1.021 and 1.000
averaged rate (WT SthK; [5]): 0.917
normalized rate (WT SthK; [5]): 0.846 and 1.000 and 0.945 and 0.918 and 0.791 and 0.664
averaged rate (WT SthK; [6]): 0.942
normalized rate (WT SthK; [6]): 0.974 and 0.975 and 0.900 and 0.886 and 0.933 and 1.068
averaged rate (WT SthK; [7]): 1.014
normalized rate (WT SthK; [7]): 0.948 and 0.912 and 0.942 and 1.000 and 1.421 and 0.879
averaged rate (WT SthK; [8]): 0.922
normalized rate (WT SthK; [8]): 1.000 and 0.963 and 0.916 and 0.966 and 0.900 and 0.827 and 0.883
effect on SthK activation (slow activation phase) (WT SthK; 1 µM protein, 100 µM cAMP): abolished
EC50 (WT SthK; PPIase concentration dependence of normalized Tl+ flux rate, 12 ms incubation with 100 µM cAMP): ~30 nM
averaged rate (WT SthK; [9]): 0.622
normalized rate (WT SthK; [9]): 0.592 and 0.562 and 0.636 and 0.697
averaged rate (WT SthK; [10]): 0.685
normalized rate (WT SthK; [10]): 0.710 and 0.760 and 0.585
normalized rate (WT SthK; [PPIase] 1e-9 M, 12 ms with 100 µM cAMP): 0.755 and 0.566 and 0.775 and 0.750
averaged rate (WT SthK; [11]): 0.814
normalized rate (WT SthK; [11]): 0.965 and 0.565 and 0.822 and 0.905
averaged rate (WT SthK; [12]): 0.961
normalized rate (WT SthK; [12]): 1.083 and 0.844 and 0.962 and 0.956
averaged rate (WT SthK; [13]): 0.999
normalized rate (WT SthK; [13]): 1.000 and 0.992 and 1.006
averaged rate (WT SthK; [14]): 1.000
normalized rate (WT SthK; [14]): 1.000
